B1: JS007, humanized IgG1 anti-CTLA-4 monoclonal antibody (antibody, V domains shown)
VH: QVQLQESGPGLVKPSQTLSLTCTVSAYSITSGYYWNWIRQHPGKGLEWIGYIGYDGSNNYNPSLKSRVTISRDTSKNQFSLKLSSVTAADTAVYYCARDYYSGYFDSWGQGTTLTVSS
VL: DIQMTQSPSSLSASVGDRVTITCRASQNVGTYVAWYQQKPGKVPKPLIYSTSYRYSGVPSRFSGSGSGTDFTLTISSLQPEDVATYFCHQYDTYPLTFGAGTKLELK

Legend:
[1] = target: recombinant human CTLA-4-His-tag protein (Homo sapiens (Human).) (UniProt P16410); test: SPR
[2] = target: recombinant human CTLA-4-His-tag protein (Homo sapiens (Human)., UniProt P16410); test: SPR
recombinant human CTLA-4-His-tag protein, sequence (P16410 36-161): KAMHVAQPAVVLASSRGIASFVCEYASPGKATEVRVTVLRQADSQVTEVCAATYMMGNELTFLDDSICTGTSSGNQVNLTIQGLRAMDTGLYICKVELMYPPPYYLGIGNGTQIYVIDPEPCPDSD

Molecule | Kd [1] | Kd [2]
ipilimumab (antibody) | 16.1 nM | 
B1 |  | 0.21 nM
